Assay results as given in article PMC4980077 (The FEBS journal, 2016).
Square brackets hold non-standard residues; d marks the D form. Ends that are not written are not given here. * marks the point of attachment. 5‑TAMRA = CN(C)c1ccc2c(-c3ccc(C(=O)*)cc3C(=O)[O-])c3ccc(N(C)C)cc3[o+]c2c1; pS = N[C@@H](COP(=O)(O)O)C(=O)O

Tests used:
[1] = target: full-length PKA-RIα regulatory subunit dimer (bovine, UniProt P00514 1-380); assay: fluorescence polarisation
[2] = target: full-length PKA-RIβ regulatory subunit dimer (UniProt P31321 1-381); assay: fluorescence polarisation
Sequence of full-length PKA-RIβ regulatory subunit dimer (P31321 whole entry): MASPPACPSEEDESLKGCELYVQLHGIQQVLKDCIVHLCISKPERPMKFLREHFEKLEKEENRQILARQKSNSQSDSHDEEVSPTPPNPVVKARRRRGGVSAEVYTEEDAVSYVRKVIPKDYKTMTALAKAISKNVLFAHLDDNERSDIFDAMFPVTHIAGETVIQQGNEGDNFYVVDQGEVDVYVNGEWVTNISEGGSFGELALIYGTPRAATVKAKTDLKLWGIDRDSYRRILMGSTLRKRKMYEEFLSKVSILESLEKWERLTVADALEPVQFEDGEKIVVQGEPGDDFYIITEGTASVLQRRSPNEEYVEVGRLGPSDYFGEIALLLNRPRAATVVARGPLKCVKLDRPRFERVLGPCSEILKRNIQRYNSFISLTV

Sequence of full-length PKA-RIα regulatory subunit dimer (P00514 whole entry): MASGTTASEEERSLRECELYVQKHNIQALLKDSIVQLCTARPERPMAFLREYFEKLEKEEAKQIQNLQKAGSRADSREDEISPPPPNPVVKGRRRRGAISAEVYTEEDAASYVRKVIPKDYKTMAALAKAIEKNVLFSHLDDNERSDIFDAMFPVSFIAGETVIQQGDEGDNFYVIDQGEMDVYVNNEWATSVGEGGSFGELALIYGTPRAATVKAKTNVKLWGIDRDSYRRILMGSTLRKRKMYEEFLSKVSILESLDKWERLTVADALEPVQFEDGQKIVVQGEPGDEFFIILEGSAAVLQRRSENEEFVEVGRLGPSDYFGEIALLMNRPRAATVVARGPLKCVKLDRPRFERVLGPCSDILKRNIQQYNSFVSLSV

Kd [1]: > 500 nM
Kd [2]: > 500 nM
Binder: {5‑TAMRA}-IVILEYAHRL[pS]QDILCDALQQWAC (cysteine pairing not given here) [phosphorylated smAKAP-AKB domain peptide (pSer66), tagged with 5-TAMRA]
